# Measured values from publication PMC9606073 (Immunity, 2022).
# B1: C118 IgG (antibody, V domains shown)
# VH: QVQLVESGGGVVQPGRSLRLSCAASGFTFSNYAMHWVRQAPGKGLEWVAVISYDGSNKYYADSVKGRFTISRDNSKNTLYLQMNSLRAEDTAIYYCASGYTGYDYFVRGDYYGLDVWGQGTTVTVSS
# VL: QPVLTQSPSASASLGASVKLTCTLSSGHSSYAIAWHQQQPEKGPRYLMKLNTDGSHSKGDGIPDRFSGSSSGAERYLTISSLQSEDEADYYCQTWGTGILVFGGGTKLTVL
# notes: copies: 2 + 2
# B2: M8a-3 IgG (antibody, V domains shown)
# VH: QVQLQQPGAELVLPGASVKLSCKASGYTFTNYWMHWVKQRPGHGLEWIGEIDPFDTYIKINQKFKGKSTLTVDTSSSTAYMQLSSLTSEDSAVYYCARPDSSGYPVYFDYWGQGTTLTVSS
# VL: DIVMTQSHKFMSTSVGDRVSITCKASQDVGTYIAWYQQKPGQSPKLLIYWASTRHTGVPDRFTGSGSGTNYTLTISSVQAEDLALYHCQQHYSTPYTFGGGTKLEIK
# notes: copies: 2 + 2
# B3: M8a-6 IgG (antibody, V domains shown)
# VH: QVQLQQPGTELVMPGASVKLSCKTSGYTFTHYWMHWVKQRPGEGLEWIGEIAPSDNYVKYNQKFKGKSTLSVDRSSSTAYMQLSSLTSEDSAVYFCARPDNSGYPVYFDYWGQGTSLTVSS
# VL: DIVMTQSQKFMSTSLGDRVSISCKASQDVGTTVAWYQQKPGQSPKLLIYWASTRHTGVPDRFTGTGSGTDYTLTISSVAAEDLALYYCQQHYNTPYTFGGGTKLEIE
# notes: copies: 2 + 2
# Biological target: SARS-CoV-2 Omicron BA.4/BA.5 RBD (SARS-CoV-2 Omicron BA.4/BA.5, strain)
# Assay: SPR
# Details: both partners purified
Binder,Kd [µM],koff [s⁻¹],kon [M⁻¹ s⁻¹]
B1,0.028,0.0039,140000
B2,0.0022,0.00045,210000
B3,0.29,–,–
